Data on 1 substance can be found in publication PMC7212079.

The assay has as its target Hsp32. In words: native MS.

Substance Hsp32 (natural protein) had a stoichiometry N of 2.

For orientation: stoichiometry N means a count of units in the complex or per binding partner.
